From the supplement of paper PMC9732359
± gives the uncertainty stated by the source.

Experiment: protein stability index of a GFP-peptide fusion (yeast GPS) (PSI 1-4); higher = more stable; sorted into four equal gates, so the index is relative within each strain
Method in brief: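 Tiled 17-residue peptides from yeast proteins were fused downstream of GFP on a plasmid that also expresses Cherry, and the pooled library was carried in yeast. Mid-log cultures grown in leucine-free medium were sorted into four equal gates by GFP/Cherry fluorescence ratio. Plasmids from each gate were PCR-amplified and Illumina-sequenced, and reads were assigned to strains by barcodes. Each peptide's protein stability index is the sum, over gates, of the gate's read frequency multiplied by its gate number.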

| Sequence | protein stability index (doa10∆) | protein stability index (pdr5∆) | protein stability index (san1∆) | protein stability index (ubr1∆) |
| --- | --- | --- | --- | --- |
| VDFSKYNTNFNLLLREL [SRP72] | 2.99 ± 0.1 | 3.24 ± 0.12 | 2.97 ± 0.1 | 3.31 ± 0.056 |
| AAKLRTLDYAERHGYIR [RPL2A] | 3.38 ± 0.11 | 3.27 ± 0.14 | 2.9 ± 0.16 | 3.37 ± 0.13 |
| GVEEEEELKDSEINEIL [SNF2] | 3.14 ± 0.16 | 3.33 ± 0.11 | 2.31 ± 0.12 | 2.72 ± 0.075 |
| QLAVANEIIRSLSDEVM [SIR4] | 3.16 ± 0.077 | 3 ± 0.081 | 2.59 ± 0.12 | 3.21 ± 0.087 |
| VGFWKDDGDDEDLLECL [MTR3] | 2.67 ± 0.15 | 3.42 ± 0.19 | 3.5 ± 0.22 | – |
| EIAGLSPYERRLIDLIR [RPL36A] | 2.31 ± 0.088 | 2.37 ± 0.077 | 2.02 ± 0.14 | 2.29 ± 0.071 |
| NDTLPDEISPELLSKYK [SNU114] | 2.9 ± 0.067 | 2.8 ± 0.072 | 3.03 ± 0.064 | 2.86 ± 0.075 |
| IDMDKLNTVLIADLDTE [RRP43] | 2.66 ± 0.099 | 3.02 ± 0.07 | 2.83 ± 0.066 | 3.22 ± 0.057 |
| VLPIFTTVFFSRQKSGL [YML031W/NDC1] | 1.53 ± 0.075 | 1.24 ± 0.082 | 1.14 ± 0.095 | 1.11 ± 0.077 |
| PFFSSNTSSLQSFQNPF [YIL149C/MLP2] | 2.93 ± 0.058 | 2.25 ± 0.055 | 2.69 ± 0.05 | 2.81 ± 0.033 |
| TFAQEKLNTFENDLLQE [SMC3] | 3.33 ± 0.18 | 3.26 ± 0.12 | 3.12 ± 0.13 | 2.81 ± 0.13 |
| ELAESTTTKIIDSTDHI [LRP1] | 2.95 ± 0.1 | 3.11 ± 0.1 | 2.86 ± 0.24 | 2.63 ± 0.12 |
| KIYRVGKGDDEANGATS [RPL3] | 3.45 ± 0.071 | 3.6 ± 0.1 | 3.67 ± 0.045 | 3.22 ± 0.11 |
| PNIHQNLLPKKSAKATK [HTA1] | 2.53 ± 0.093 | 2.66 ± 0.082 | 2.69 ± 0.1 | 2.49 ± 0.061 |
| SRGINKGHKFNNTKAGR [RPL15A] | 3.28 ± 0.29 | 3 ± 0.2 | – | 3.4 ± 0.17 |
| RSMDAEQLGHASKRHKP [RPP1] | 2.55 ± 0.056 | 2.87 ± 0.053 | 2.73 ± 0.054 | 2.74 ± 0.046 |
| GGGWDNVDQTKTQCPNY [RPC11] | 3.47 ± 0.13 | 3.25 ± 0.17 | 3.07 ± 0.078 | 3.22 ± 0.09 |
| DMAKLKKMMNTSDSEST [SWI3] | 1.81 ± 0.059 | 2.27 ± 0.05 | 1.94 ± 0.073 | 1.91 ± 0.036 |
| EEISFSLSEGCDILVAT [PRP28] | 2.62 ± 0.1 | 2.69 ± 0.06 | 2.72 ± 0.071 | 2.96 ± 0.058 |
| QEQGSFQHILRLLNTNV [RPS18A] | 2.97 ± 0.045 | 3.06 ± 0.045 | 2.91 ± 0.037 | 3.03 ± 0.035 |
| HHAIEEAESLLQFHVAT [RPO21] | 2.67 ± 0.094 | 2.89 ± 0.13 | 2.64 ± 0.11 | 2.94 ± 0.087 |
| PDVKSLVQLSTMETKTL [SIR4] | 2.92 ± 0.071 | 2.83 ± 0.073 | 2.81 ± 0.052 | 2.98 ± 0.063 |
| HHYRPDMTTEEGLDLLK [PRE1] | 3.32 ± 0.19 | 3.41 ± 0.17 | – | 3.53 ± 0.093 |
| PLSTYNKNGNAVCSTAT [PGD1] | 2.37 ± 0.096 | 2.63 ± 0.075 | 2.37 ± 0.078 | 2.72 ± 0.088 |
| GKIDEAADILCELQVET [RPN5] | 3.06 ± 0.12 | 3.25 ± 0.15 | 3.1 ± 0.061 | 3.46 ± 0.095 |
| IMYQQMLKYRRLFIGDQ [SNF2] | 1.45 ± 0.052 | 1.22 ± 0.04 | 1.3 ± 0.12 | 1.42 ± 0.03 |
| EVGDVCINELDNWNAPL [RPO31] | 3.21 ± 0.086 | 3.06 ± 0.074 | 3.21 ± 0.052 | 3.25 ± 0.053 |

| Sequence | protein stability index (doa10∆) | protein stability index (pdr5∆) | protein stability index (san1∆) | protein stability index (ubr1∆) |
| --- | --- | --- | --- | --- |
| VSEGTRAVTKYSSSTQA [HTB1] | 2.99 ± 0.066 | 3.15 ± 0.1 | 3.16 ± 0.054 | 3.02 ± 0.071 |
| SVPLRKGDRALLVKLSK [BRR2] | 2.46 ± 0.17 | 3.33 ± 0.18 | 3.06 ± 0.094 | 2.99 ± 0.15 |
| PKIDEDDTWYNLTEFVQ [AAR2] | 3.17 ± 0.088 | 3.23 ± 0.086 | 3.07 ± 0.049 | 3.07 ± 0.057 |
| NQNQRNVNETMSRSLAN [SMC3] | 3.11 ± 0.12 | 2.65 ± 0.12 | 3.15 ± 0.059 | 2.86 ± 0.077 |
| LYNDNNKNNNNRHNLLN [SWI1] | 3.08 ± 0.1 | 1.96 ± 0.062 | 1.95 ± 0.065 | 2.4 ± 0.047 |
| KKRIRLPSEERIQKIIS [YIL149C/MLP2] | 2.66 ± 0.074 | 2.49 ± 0.062 | 2.71 ± 0.081 | 2.72 ± 0.04 |
| SFTNYITRSFKEPRLVI [RPS0A] | 2.74 ± 0.09 | 2.79 ± 0.068 | 2.55 ± 0.068 | 2.83 ± 0.074 |
| TDLKKIIKANQLILSDV [RET1] | 2.57 ± 0.055 | 2.34 ± 0.053 | 2.48 ± 0.053 | 2.39 ± 0.05 |
| GLSMLAKLKELAEDVDD [RPC31] | 2.92 ± 0.079 | 3.31 ± 0.061 | 2.87 ± 0.078 | 2.95 ± 0.047 |
| NLQTADTVIIFDTDWNP [SNF2] | 2.57 ± 0.14 | 2.96 ± 0.091 | 2.8 ± 0.078 | 2.34 ± 0.064 |
| MSSNTSSVMSSPRVEKR [YOR098C/NUP1] | 3.18 ± 0.084 | 3.18 ± 0.093 | 3.15 ± 0.078 | 3.01 ± 0.088 |
| GESEKSSDVDMDDEEWR [RPC53] | 3.7 ± 0.22 | 3.63 ± 0.21 | 3.35 ± 0.21 | 3.33 ± 0.18 |
| RSNGSVASLSKRNKLLT [YJL039C/NUP192] | 1.73 ± 0.1 | 1.55 ± 0.068 | 2.1 ± 0.12 | 1.54 ± 0.062 |
| VMPVPNVRSSVLQKVIE [SKP1] | 2.33 ± 0.05 | 2.43 ± 0.052 | 2.38 ± 0.052 | 2.35 ± 0.045 |
| YNTSILEFRWLTSSKSV [SIN4] | 1.79 ± 0.065 | 1.91 ± 0.081 | 1.96 ± 0.079 | 2.48 ± 0.1 |
| ERGGKFHESGSQYSTMV [RGR1] | 3.36 ± 0.12 | 3.45 ± 0.12 | 3.44 ± 0.25 | 3.3 ± 0.14 |
| NYLNDMHDSNLQNNSDS [SKP1] | 2.48 ± 0.12 | 2.59 ± 0.063 | 2.3 ± 0.08 | 2.7 ± 0.054 |
| WTDPNLKSSLADVLSIL [RPN1] | 2.94 ± 0.15 | 2.98 ± 0.14 | 2.94 ± 0.096 | 2.65 ± 0.068 |
| SANTNNTCTISTSKFES [SWP82] | 2.59 ± 0.055 | 2.51 ± 0.07 | 2.43 ± 0.055 | 2.13 ± 0.04 |
| VSYMMPSLYRLLNILIT [SRB8] | 1.22 ± 0.12 | 1.21 ± 0.07 | 1.1 ± 0.12 | 1.3 ± 0.057 |
| AFALAKEKAPTIIFIDE [RPT5] | 2.79 ± 0.12 | 2.78 ± 0.12 | 2.83 ± 0.14 | 2.88 ± 0.086 |
| NVNNNNIGQQQVKKPRK [SWI1] | 3.42 ± 0.12 | 3.37 ± 0.16 | 3.29 ± 0.084 | 3.13 ± 0.21 |
| KIVFILDSDSENDLSFA [RRI2] | 2.52 ± 0.059 | 2.61 ± 0.059 | 2.09 ± 0.12 | 2.59 ± 0.047 |
| KKVKSASKKSGGDVVKF [SMC4] | 3.09 ± 0.15 | 3.68 ± 0.15 | 2.89 ± 0.21 | 3.12 ± 0.16 |
| PYNLNLFPNELYNVMGI [RPC31] | 2.12 ± 0.061 | 2.52 ± 0.092 | 2.71 ± 0.086 | 2.38 ± 0.12 |
| ADEQKRSTDVWYEASTW [ARP7] | 2.36 ± 0.06 | 2.55 ± 0.049 | 2.78 ± 0.052 | 2.73 ± 0.048 |
